Read-outs that look alike come from different tables or passages of the source.
Assays:
[1] = molecular target: T1, Cynomolgus CD3ε stalk-Fc(knob)-Avi/CD3δ stalk-Fc(hole) (cynomolgus); test: SPR, TCB captured by anti-PG antibody, antigen as analyte, 25°C
T1 construct: also called cynomolgus CD3ε/δ
Source text: (§1) For affinity measurements, TCB molecules were captured on a C1 sensorchip (GE Healthcare) surface with immobilized anti-Fc(P329G) IgG (an antibody that specifically binds human IgG₁ Fc(P329G); “anti-PG antibody”—see WO 2017/072210, incorporated herein by reference). The experimental setup is schematically depicted in FIG. 3. Capture IgG was coupled to the sensorchip surface by direct immobilization of around 400 resonance units (RU) using the standard amine coupling kit (GE Healthcare Life Sciences).
(§2) Kinetic constants were derived using the Biacore T200 Evaluation Software (GE Healthcare Life Sciences), to fit rate equations for 1:1 Langmuir binding by numerical integration. The half-life (t_{1/2}) of the interaction was calculated using the formula t_{1/2}=ln2/koff.
(§3) To analyze the interaction to CD3, TCB molecules were captured for 240 s at 25 nM with a flow rate of 10 μl/min. Human and cynomolgus CD3F stalk-Fc(knob)-Avi/CD36-stalk-Fc(hole) were passed at a concentration of 0.14-100 nM with a flow rate of […] through the flow cells for 240 s. The dissociation was monitored for 800 s.

[2] = molecular target: T2, Human CD3ε stalk-Fc(knob)-Avi/CD3δ stalk-Fc(hole) (human); test: as above
T2 construct: Heterodimer of CD3 delta and CD3 epsilon ectodomains fused to human Fc with knob-into-hole; also called human CD3ε/δ; CD3 antigen
Source text: as §1, §2, §3

[3] = molecular target: human CD3 on cells (CD3ε) (human, UniProt P07766 23-207); test: cell-based or functional assay
Chain of human CD3 on cells (CD3ε) (P07766 23-207 limits assumed): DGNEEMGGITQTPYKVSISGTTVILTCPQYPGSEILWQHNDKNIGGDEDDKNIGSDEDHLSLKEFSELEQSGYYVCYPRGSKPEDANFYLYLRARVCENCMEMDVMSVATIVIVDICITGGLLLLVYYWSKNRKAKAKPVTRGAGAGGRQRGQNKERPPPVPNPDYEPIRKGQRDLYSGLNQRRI

[4] = molecular target: T3, human GPRC5D on stably transduced CHO-K1 cells (human, UniProt Q9NZD1 1-345); test: flow cytometry on CHO-K1 cells stably transduced with human GPRC5D, performed as in Example 11
T3 construct: whole, on cells; also called CHO-hGPRC5D cells
T3 sequence (Q9NZD1 whole entry): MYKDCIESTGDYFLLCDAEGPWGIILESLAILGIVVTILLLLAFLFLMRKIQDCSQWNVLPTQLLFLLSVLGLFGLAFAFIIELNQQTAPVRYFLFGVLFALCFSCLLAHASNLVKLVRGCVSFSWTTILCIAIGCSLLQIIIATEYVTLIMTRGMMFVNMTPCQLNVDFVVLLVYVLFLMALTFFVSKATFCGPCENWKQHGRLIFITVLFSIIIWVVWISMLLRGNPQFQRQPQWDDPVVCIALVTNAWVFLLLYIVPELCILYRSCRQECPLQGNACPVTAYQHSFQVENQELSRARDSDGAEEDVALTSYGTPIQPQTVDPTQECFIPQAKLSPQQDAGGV
Protocol: The binding of the CEACAM5-TCB molecules prepared in Example 7 was tested on CEACAM5 (CEA)-positive tumor cells (LS-180 cells, ECACC #87021202) and CD3-expressing immortalized T lymphocyte cells (GloResponse Jurkat NFAT-RE-luc2P; Promega, #CS176501). Briefly, adherent LS-180 cells were detached, using Cell Dissociation Buffer (Gibco), counted, checked for viability and re-suspended at 2 million cells per ml in FACS buffer (PBS with 0.1% BSA). Likewise, Jurkat suspension cells were harvested and plated for subsequent stainings. 100 μl of the cell suspension (containing 0.2 million cells) were incubated in round-bottom 96-well plates for 30 min at 4° C. with increasing concentrations of the CEACAM5-TCB molecules (4 pM-300 nM). Cells were washed twice with cold PBS 0.1% BSA (FACS buffer), re-incubated for further 30 min at 4° C. with the Alexa Fluor 647-conjugated AffiniPure F(ab′)2 Fragment Goat Anti-Human IgG, Fcγ Fragment Specific Antibody (Jackson Immuno Research Lab #109-606-008, diluted 1:50 in FACS buffer) and washed twice with cold PBS 0.1% BSA thereafter. The staining was fixed for 20 min at 4° C. in the dark, using 150 μl of 2% PFA in FACS buffer per well. Fluorescence was analyzed by FACS using a FACS Fortessa (Software FACS Diva). Binding curves were obtained using GraphPadPrism6.
The binding of the GPRC5D-TCB molecules prepared in Example 7 was tested using CHO-transfectants stably transduced to express human GPRC5D (CHO-K1, ATCC) and CD3-expressing immortalized T lymphocyte cells (GloResponse Jurkat NFAT-RE-luc2P; Promega, #CS176501). The experiment was performed as described in Example 11.

[5] = molecular target: T2, Human CD3ε stalk-Fc(knob)-Avi/CD3δ …; test: SPR on immobilized human CD3ε/δ after stress, relative to sample kept at -80°C pH 6
Protocol: In order to assess the effect of the deamidation site removal and its effect on the stability of the antibodies, the optimized anti-CD3 antibodies (in TCB format) were incubated for 14 days at 37° C., pH 7.4 and at 40° C., pH 6 and further analyzed by SPR for their binding capability to human CD3ε/δ. Samples stored at −80° C. pH 6 were used as reference. The reference samples and the samples stressed at 40° C. were in 20 mM His, 140 mM NaCl, pH 6.0, and the samples stressed at 37° C. in PBS, pH 7.4, all at a concentration of 1.0 mg/ml. After the stress period (14 days) samples in PBS were dialyzed back to 20 mM His, 140 mM NaCl, pH 6.0 for further analysis.
(§4) All SPR experiments were performed on a Biacore T200 instrument (GE Healthcare) at 25° C. with HBS-P+ (10 mM HEPES, 150 mM NaCl pH 7.4, 0.05% Surfactant P20) as running and dilution buffer. Biotinylated human CD3ε/δ (see Example 3, SEQ ID NOs 41 and 42) as well as biotinylated anti-huIgG (Capture Select, Thermo Scientific, #7103262100) were immobilized on a Series S Sensor Chip SA (GE Healthcare, #29104992), resulting in surface densities of at least 1000 resonance units (RU). Anti-CD3 antibodies with a concentration of 2 μg/ml were injected for 30 s at a flow rate of 5 μl/min, and dissociation was monitored for 120 s. The surface was regenerated by injecting 10 mM glycine pH 1.5 for 60 s. Bulk refractive index differences were corrected by subtracting blank injections and by subtracting the response obtained from a blank control flow cell. For evaluation, the binding response 5 seconds after injection end was taken. To normalize the binding signal, the CD3 binding was divided by the anti-huIgG response (the signal (RU) obtained upon capture of the CD3 antibody on the immobilized anti-huIgG antibody). The relative binding activity was calculated by referencing each temperature stressed sample to the corresponding, non-stressed sample.
The experiment was performed as described in Example 4, using the TCB molecules prepared in Example 7.

[6] = molecular target: T2, Human CD3ε stalk-Fc(knob)-Avi/CD3δ …; test: as above; remark: listed apart in the source
Protocol: as §4
The experiment was performed as described in Example 4, using the monovalent IgG molecules prepared in Example 19.

[7] = molecular target: T1, Cynomolgus CD3ε stalk-Fc(knob)-Avi/CD3δ …; test: SPR, monovalent IgG captured by anti-PG antibody, antigen as analyte, 25°C; bad fit quality per footnote
Protocol: (§5) SPR experiments were performed as described in Example 3, with the monovalent IgG molecules prepared in Example 19.
(§6) To analyze the interaction to CD3, IgG molecules were captured for 240 s at 50 nM with a flow rate of 5 μl/min. Human and cynomolgus CD3F stalk-Fc(knob)-Avi/CD36-stalk-Fc(hole) were passed at a concentration of 0.061-250 nM with a flow rate of […] through the flow cells for 300 s. The dissociation was monitored for 800 s.

[8] = molecular target: T2, Human CD3ε stalk-Fc(knob)-Avi/CD3δ …; test: as above
Protocol: as §5, §6

Kd [1]	koff [1]	kon [1]	t1/2 [1]	Kd [2]	koff [2]	kon [2]	t1/2 [2]	EC50 20 h (pM), T-cell mediated lysis of GPRC5D-expressing NCI-H929 cells [3]	binding result [4]	binding activity [%] after 2 weeks at pH 6.0/40°C [5]	binding activity [%] after 2 weeks at pH 7.4/37°C [5]	Binder	also measured
0.333 nM	0.000688 s⁻¹	2.07e+06 M⁻¹ s⁻¹	16.8 min	0.547 nM	0.000948 s⁻¹	1.74e+06 M⁻¹ s⁻¹	12.2 min	0.41 pM	binds	99%	98%	GPRC5D-TCB, GPRC5D CD3 variant P033.078 (bispecific antibody, human IgG1, kappa, L234A L235A, 2+1 IgG CrossFab, inverted; human IgG1 Fc, knob-into-hole, PGLALA; also called P033.078 in GPRC5D-TCB format) heavy 1: not shown heavy 2: EVQLVESGGGVVQPGRSLRLSCAASGFSFSNYGMAWVRQAPGKGLEWVASISTGGGNTYYRDSVKGRFTISRDNAKNTLYLQMNSLRAEDTAVYYCTRHDRGGLYWGQGTMVTVSSASTKGPSVFPLAPSSKSTSGGTAALGCLVEDYFPEPVTVSWNSGALTSGVHTFPAVLQSSGLYSLSSVVTVPSSSLGTQTYICNVNHKPSNTKVDEKVEPKSCDKTHTCPPCPAPEAAGGPSVFLFPPKPKDTLMISRTPEVTCVVVDVSHEDPEVKFNWYVDGVEVHNAKTKPREEQYNSTYRVVSVLTVLHQDWLNGKEYKCKVSNKALGAPIEKTISKAKGQPREPQVCTLPPSRDELTKNQVSLSCAVKGFYPSDIAVEWESNGQPENNYKTTPPVLDSDGSFFLVSKLTVDKSRWQQGNVFSCSVMHEALHNHYTQKSLSLSP light 1: DIVMTQSPLSLPVTPGEPASISCRSSKSLLHSNGITYVYWYLQKPGQSPQLLIYRMSNRASGVPDRFSGSGSGTDFTLKISRVEAEDVGVYHCGQLLENPYTFGQGTKLEIKRTVAAPSVFIFPPSDRKLKSGTASVVCLLNNFYPREAKVQWKVDNALQSGNSQESVTEQDSKDSTYSLSSTLTLSKADYEKHKVYACEVTHQGLSSPVTKSFNRGEC light 2: EVQLLESGGGLVQPGGSLRLSCAASGFTFESYAMNWVRQAPGKGLEWVSRIRSKYNEYATYYADSVKGRFTISRDDSKNTLYLQMNSLRAEDTAVYYCVRASNFPSSFVSYFGYWGQGTLVTVSSASVAAPSVFIFPPSDEQLKSGTASVVCLLNNFYPREAKVQWKVDNALQSGNSQESVTEQDSKDSTYSLSSTLTLSKADYEKHKVYACEVTHQGLSSPVTKSFNRGEC	–
–	–	–	–	–	–	–	–	–	–	–	–	anti-CD3 antibody clone P004.042 in monovalent IgG format (antibody, also called monovalent IgG P004.042) heavy: not shown DKTHTCPPCPAPEAAGGPSVFLFPPKPKDTLMISRTPEVTCVVVDVSHEDPEVKFNWYVDGVEVHNAKTKPREEQYNSTYRVVSVLTVLHQDWLNGKEYKCKVSNKALGAPIEKTISKAKGQPREPQVCTLPPSRDELTKNQVSLSCAVKGFYPSDIAVEWESNGQPENNYKTTPPVLDSDGSFFLVSKLTVDKSRWQQGNVFSCSVMHEALHNHYTQKSLSLSP light: EVQLLESGGGLVQPGGSLRLSCAASGFQFDNYAMNWVRQAPGKGLEWVSRIRTKYNEYATYYADSVKGRFTISRDDSKNTLYLQMNSLRAEDTAVYYCVRASNFPQSYVSYFGYWGQGTLVTVSSASVAAPSVFIFPPSDEQLKSGTASVVCLLNNFYPREAKVQWKVDNALQSGNSQESVTEQDSKDSTYSLSSTLTLSKADYEKHKVYACEVTHQGLSSPVTKSFNRGEC	binding activity [%] after 2 weeks at pH 6.0/40°C [6]: 101%; binding activity [%] after 2 weeks at pH 7.4/37°C [6]: 98%; Kd [7]: 0.439 nM; koff [7]: 0.00809 s⁻¹; kon [7]: 1.85e+07 M⁻¹ s⁻¹; t1/2 [7]: 1.43 min; Kd [8]: 1.36 nM; koff [8]: 0.00852 s⁻¹; kon [8]: 6.28e+06 M⁻¹ s⁻¹; t1/2 [8]: 1.36 min
0.599 nM	0.00163 s⁻¹	2.72e+06 M⁻¹ s⁻¹	7.09 min	1.21 nM	0.00265 s⁻¹	2.2e+06 M⁻¹ s⁻¹	4.36 min	0.87 pM	binds	100%	99%	GPRC5D-TCB, GPRC5D CD3 variant P004.042 (bispecific antibody, human IgG1, kappa, L234A L235A, 2+1 IgG CrossFab, inverted; human IgG1 Fc, knob-into-hole, PGLALA; also called P004.042 in GPRC5D-TCB format) heavy 1: not shown heavy 2: EVQLVESGGGVVQPGRSLRLSCAASGFSFSNYGMAWVRQAPGKGLEWVASISTGGGNTYYRDSVKGRFTISRDNAKNTLYLQMNSLRAEDTAVYYCTRHDRGGLYWGQGTMVTVSSASTKGPSVFPLAPSSKSTSGGTAALGCLVEDYFPEPVTVSWNSGALTSGVHTFPAVLQSSGLYSLSSVVTVPSSSLGTQTYICNVNHKPSNTKVDEKVEPKSCDKTHTCPPCPAPEAAGGPSVFLFPPKPKDTLMISRTPEVTCVVVDVSHEDPEVKFNWYVDGVEVHNAKTKPREEQYNSTYRVVSVLTVLHQDWLNGKEYKCKVSNKALGAPIEKTISKAKGQPREPQVCTLPPSRDELTKNQVSLSCAVKGFYPSDIAVEWESNGQPENNYKTTPPVLDSDGSFFLVSKLTVDKSRWQQGNVFSCSVMHEALHNHYTQKSLSLSP light 1: DIVMTQSPLSLPVTPGEPASISCRSSKSLLHSNGITYVYWYLQKPGQSPQLLIYRMSNRASGVPDRFSGSGSGTDFTLKISRVEAEDVGVYHCGQLLENPYTFGQGTKLEIKRTVAAPSVFIFPPSDRKLKSGTASVVCLLNNFYPREAKVQWKVDNALQSGNSQESVTEQDSKDSTYSLSSTLTLSKADYEKHKVYACEVTHQGLSSPVTKSFNRGEC light 2: EVQLLESGGGLVQPGGSLRLSCAASGFQFDNYAMNWVRQAPGKGLEWVSRIRTKYNEYATYYADSVKGRFTISRDDSKNTLYLQMNSLRAEDTAVYYCVRASNFPQSYVSYFGYWGQGTLVTVSSASVAAPSVFIFPPSDEQLKSGTASVVCLLNNFYPREAKVQWKVDNALQSGNSQESVTEQDSKDSTYSLSSTLTLSKADYEKHKVYACEVTHQGLSSPVTKSFNRGEC	–

— patent publication US20260125469A1 (Hoffmann-La Roche, published 2026)
